# According to paper PMC11040377 (2024):
# B1: Lag3 (lymphocyte-activation gene 3), on transfected SH-SY5Y cells (receptor)
# chain: GPGKELPVVWAQEGAPVHLPCSLKSPNLDPNFLRRGGVIWQHQPDSGQPTPIPALDLHQGMPSPRQPAPGRYTVLSVAPGGLRSGRQPLHPHVQLEERGLQRGDFSLWLRPALRTDAGEYHATVRLPNRALSCSLRLRVGQASMIASPSGVLKLSDWVLLNCSFSRPDRPVSVHWFQGQNRVPVYNSPRHFLAETFLLLPQVSPLDSGTWGCVLTYRDGFNVSITYNLKVLGLEPVAPLTVYAAEGSRVELPCHLPPGVGTPSLLIAKWTPPGGGPELPVAGKSGNFTLHLEAVGLAQAGTYTCSIHLQGQQLNATVTLAVITVTPKSFGLPGSRGKLLCEVTPASGKERFVWRPLNNLSRSCPGPVLEIQEARLLAERWQCQLYEGQRLLGATVYAAESSSGAHSARRISGDLKGGHLVLVLILGALSLFLLVAGAFGFHWWRKQLLLRRFSALEHGIQPFPAQRKIEELERELETEMGQEPEPEPEPQLEPEPRQL
# Molecular target: Tau-biotin monomer (human, UniProt P10636-8 1-441, biotin (Sulfo-NHS-LC-Biotin))
binder,measurement,value
B1,Kd,> 2000 nM
